This passage reports Km, kcat and kcat/Km results from article PMC5807507, “Crystal structures of a bacterial dipeptidyl peptidase IV reveal a novel substrate recognition mechanism distinct from that of mammalian orthologues” (Scientific Reports, 2018).

Substrate in data set [1]: Cc1cc(=O)oc2cc(NC(=O)[C@@H]3CCCN3C(=O)CN)ccc12
The data set can be described thus: fluorescence of released MCA; Michaelis-Menten nonlinear fit. It is filed as biochemical, Homo sapiens. The settings on record: […] substrate, […] sodium phosphate pH […] EDTA, […] Tween […] K, […] min. The source says:
fluorescence of released MCA; Michaelis-Menten nonlinear fit on Human DPP IV

Substrate in data set [2]: Cc1cc(=O)oc2cc(NC(=O)[C@@H]3CCCN3C(=O)CN)ccc12
Described as above. It is filed as biochemical, Pseudoxanthomonas mexicana. The conditions noted are these: […] substrate, […] sodium phosphate pH […] EDTA, […] Tween […] K, […] min. The source says: fluorescence of released MCA; Michaelis-Menten nonlinear fit on PmDAP IV

B1: Human DPP IV (Homo sapiens) (protein)
chain: SRKTYTLTDYLKNTYRLKLYSLRWISDHEYLYKQENNILVFNAEYGNSSVFLENSTFDEFGHSINDYSISPDGQFILLEYNYVKQWRHSYTASYDIYDLNKRQLITEERIPNNTQWVTWSPVGHKLAYVWNNDIYVKIEPNLPSYRITWTGKEDIIYNGITDWVYEEEVFSAYSALWWSPNGTFLAYAQFNDTEVPLIEYSFYSDESLQYPKTVRVPYPKAGAVNPTVKFFVVNTDSLSSVTNATSIQITAPASMLIGDHYLCDVTWATQERISLQWLRRIQNYSVMDICDYDESSGRWNCLVARQHIEMSTTGWVGRFRPSEPHFTLDGNSFYKIISNEEGYRHICYFQIDKKDCTFITKGTWEVIGIEALTSDYLYYISNEYKGMPGGRNLYKIQLSDYTKVTCLSCELNPERCQYYSVSFSKEAKYYQLRCSGPGLPLYTLHSSVNDKGLRVLEDNSALDKMLQNVQMPSKKLDFIILNETKFWYQMILPPHFDKSKKYPLLLDVYAGPCSQKADTVFRLNWATYLASTENIIVASFDGRGSGYQGDKIMHAINRRLGTFEVEDQIEAARQFSKMGFVDNKRIAIWGWSYGGYVTSMVLGSGSGVFKCGIAVAPVSRWEYYDSVYTERYMGLPTPEDNLDHYRNSTVMSRAENFKQVEYLLIHGTADDNVHFQQSAQISKALVDVGVDFQAMWYTDEDHGIASSTAHQHIYTHMSHFIKQCFSLP
notes: homodimer
As for B1, in data set [1], the Km is recorded as 37.1 ± 1.6 µM, the kcat is 35.3 ± 1 s⁻¹ and the kcat/Km is 952000 ± 13000 M⁻¹ s⁻¹.

B2: PmDAP IV (Pseudoxanthomonas mexicana) (protein)
chain: AEKLTLEAITGSAPLSGPTLTKPQIAPDGSRVTFLRGKDRDRNRLDLWEYDIASGQTRLLVDSSVVLPGEEVLSDEEKARRERQRIAALSGIVDYQWSPDGKALLFPLGGELYFYDLTKSGRDAVRKLTNGGGFATDPKISPKGGFVSFIRDRNLWAIDLASGKEVQLTRDGSDTIGNGVAEFVADEEMDRHTGYWWAPDDAAIAFARIDETPVPVQKRYEVYPDRTEVVEQRYPAAGDHNVRVQLGVIAPKTGARPRWIDLGKDPDIYLARVDWRDPQRLTFQRQSRDQKKIELIETTLTNGTQRTLVTETSTTWVPLHNDLRFLKDGRFLWSSERSGFEHLYVASEDGSTLTALTQGEWVVDSLLAIDEAAGLAYVSGTRDGATEAHVYAVPLSGGEPRRLTQAPGMHAATFARNASVFVDSWSSDTTLPQIELFKADGTKLATLLVNDVSDATHPYAKYRAAHQPTAYGTLTAADGTTPLHYSLIKPAGFDPKKQYPVVVFVYGGPAAQTVTRAWPGRSDSFFNQYLAQQGYVVFTLDNRGTPRRGAAFGGALYGKQGTVEVDDQLRGIEWLKSQAFVDPARIGVYGWSNGGYMTLMLLAKHDEAYACGVAGAPVTDWALYDTHYTERYMDLPKANEAGYREASVFTHVDGIGAGKLLLIHGMADDNVLFTNSTKLMSELQKRGTPFELMTYPGAKHGLRGSDLLHRYRLTEDFFARCLKP
notes: M12I lies in the removed signal; no tag; 723 residues, 82-kDa; homodimer; crystal model Ala22-Pro745
In the case of B2, in data set [2], the Km turned out to be 19.4 ± 0.8 µM, the kcat is 19.2 ± 0.4 s⁻¹ and the kcat/Km was 989000 ± 35000 M⁻¹ s⁻¹.

As usually defined, the Km is the concentration of substrate that gives half-maximal velocity. The term kcat denotes the number of substrate molecules converted per active site and unit of time at saturation. The kcat/Km is the second-order rate constant that governs catalysis at low substrate concentration.
